Earlier results, collected in paper PMC4860049.

Target: CHMP5 (Homo sapiens) (UniProt Q9NZZ3)
UniProt Q9NZZ3, sequence (Q9NZZ3 whole entry): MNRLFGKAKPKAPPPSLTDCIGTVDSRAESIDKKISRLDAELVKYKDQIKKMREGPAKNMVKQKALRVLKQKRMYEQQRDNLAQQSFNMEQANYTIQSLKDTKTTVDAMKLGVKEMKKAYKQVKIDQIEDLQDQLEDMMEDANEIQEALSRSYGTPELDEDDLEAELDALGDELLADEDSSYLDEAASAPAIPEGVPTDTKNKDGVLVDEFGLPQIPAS

Kd: 3 nM
Substance: LIP5 MIT2 (from UniProt Q9NP79)
